test: yeast display, Sf9 membrane polyspecificity reagent, FACS + sequencing; frameworks hold sequencing errors
Summary of the method: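 Synthetic nanobody libraries on Saccharomyces cerevisiae BJ5465 were galactose-induced for 36–48 hours, stained 1 hour at 4 °C with 10% biotinylated, detergent-solubilized Sf9 membrane reagent and enriched on streptavidin microbeads. FACS then separated cells into low and high (top ~1%) gates by anti-HA (expression) and streptavidin (reagent binding) fluorescence. Genes were colony-PCR amplified, MiSeq 2 × 250 sequenced and CDR-length filtered. A clone's polyreactivity label is that of its gate of origin.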

Sequence | polyreactivity (PSR sort gate)
QVQLVESGGGIVQARGSLRLTSAASGITFQYYTMGWYRQAPGKERELVAGISDSDGDTYYADSVKGRFTISRDNAKKTVFLQMNSLKPEDTALYYCAADGYAYYRATTRFDYWGQGTQVTLSS | high polyreactivity
QVQLVESGGGIVQAVGSLRLSCAASGFTFFYYAMGWYRQAPGKERELVATISWNGGTTYYADSVKGRFTISRDNAKNTVYLQMNSLKPEDTAVYYCNARYDWTYLYDAGLVPGWDYDYWGQGTQLTVSS | low polyreactivity
QVQLVESGGGIVQSGGSLRLSFAASGSIVDWNAMGWYRQAPGKARELVASISSGGSTDYADSVKGRFTISRDNAKNTVYLQMNSLKPEDTAVYYCNADAYAYYPPRWYYGYDYWGQGTQVTVSS | low polyreactivity
QVQLVESGGGIYKAGGSLRLSCAASGSIIKINTLGRYRQAPRKERELVAAISTRGGSTYYADSVKGRFTISRDNSKNTVYLQMNSLKPDDTAVYFCAARQFYKYYYWGQGTQVTVSS | high polyreactivity
QVQLVESGGGKVQEGGSLRISCAASGSIFITYAMGWYRQAPGKERELVAAIRDSGDRTYYADSVKGRFTISRDNAKNTVYFQMNSLKPEDTAVYYCNARCQEPLKYDYWGQGTQVIVSS | low polyreactivity
QVQLVESGGGLAQAGGSLRLSCAASGSTFLYYAMGWYRQAPGKERELVDAIDSGGSTYYADSVKGRFTISRDNAKNTVYLQMNSLKPEDTAVYYCNADFADHWPPNGPGAHDYWGQGTQVTVSS | low polyreactivity
QVQLVESGGGLDQAGASLRLSCAASGRIYVVNAMGWYREAPGKEMELVATNTRSGGITFYPDSVKGRFTISRDNAKNTVYLQMNSLNPEVTAVYYCNADVLFYTYYTRGRFDFDYWGQGTQVTVSS | low polyreactivity
QVQLVESGGGLDQAGASLRLSCAASGSIFVPYTMGWYRQAPGKERELVASISYSGGTTYYADSVKGRFTISRDNAKYTVYLQMNSLKPEDTAVYYCAADWDDSYSYRRYRHYDYWGQGTQVTVSS | low polyreactivity
QVQLVESGGGLDQAGGRLRLICAASGRTFTTYAMGWNRQAPGKERELVASISRRGGSTYYADSVKGRFTISRDNAKNTVYLQMTSLKPEDTAVYYCAAKTGTYRGRQVYTYGYWGQGTQVTVSS | high polyreactivity
QVQLVESGGGLDQAGGRLRLSCAASGIIFPIYAMRLYRQAPGKERELVAGISTGGGGTYYADSVKGRFTISRDNAKNTVYLQMNSLKPEDSAVYYCSTSGPLYYSRNFDYWGQGTQVTVSS | low polyreactivity
QVQLVESGGGLDQAGGRLRLSCAASGSTFSYYAKSWYIQAPGKERELVARITWRGGSTNYADSVKGRFTISRDNAKNTVYLQMNSLKPEDTAVYYCATKLTSRVPFDYWGQGTQVTVSS | high polyreactivity
QVQLVESGGGLDQAGGSHRLSCAASGSNLSGYAMVWYRQAPGKERELVADISWTGGSTYYADSVKGRLTISRDNAKNTVYLQMISLKPEVTAVYYCATRSGYRRSRVIYYHDDYGYWGQGTQVTVSS | high polyreactivity
QVQLVESGGGLDQAGGSLGLSCAPSGRTFFPYAMGWSRQAPGKEREFVAAITKTDDSTYYADSVKGRFTISRDKAKNTVYLPMNSLKPEDTAVYYCIAGDTQIRFYYWGQGTQVTVSS | low polyreactivity
QVQLVESGGGLDQAGGSLPLSCAASGNTFYPNAMGWYRQAPGKERELVAAITTSGGTTYYADSVKGRFTISRDNANYTVYLQMNSLKPEDTAVYYCAAYWSRDKYDYWGQGTQVTVSS | low polyreactivity
QVQLVESGGGLDQAGGSLPLSCAASGSIFYVYTMGTYRQAPGKERELVAAISFRSGSTYYADSVKGRFTISRDNAKNTVYLPMNSLKPEDTAVYYCAKPIPRGRNQLFNYWGQGTEVTVSS | high polyreactivity
QVQLVESGGGLDQAGGSLPLTCAASGRTFWGNAMGWYRQAPGQERELVAGISKSGGTTYADSVKGRFTISRDNAKNTVYLEMNRLKPEDTAVYYCAAGGWWWTIPYEYWGQGTKVTVSS | high polyreactivity
QVQLVESGGGLDQAGGSLRLICAASGFIFVWYAMGWYRPAPGKERELVAAISRRGGGTYYADSVKGRFTISRDNAKNTVYLQMNSLKPEDTAVYYCAAGSYYRYGYDFNYWGQGTQVTVSS | high polyreactivity
QVQLVESGGGLDQAGGSLRLICAASGGTSQRYVMGWYRQAPGKERELVAAITKSGVRTYYADSVKGRFTISRDNAKNKVYLQMNSLKPEDTAVYYCAAKTPTKDRGSDFDYWGQGTQVTVSS | high polyreactivity
QVQLVESGGGLDQAGGSLRLICAASGRTFRFNTMGWYRQAPGKERELVATISRRGGSTYYADSVKGRFTISRDNAKNTVYLLMNSLKPEDTAVYYCAVYGGSYRFDYWGQGTQVTVSS | high polyreactivity
QVQLVESGGGLDQAGGSLRLICADSGSIFYIYAMGWYIHAPGKETELVASISGSGSTYYADSVKGRFRISRDNAKNTVYLQMNSLKPEDTAVYYCAVELWRVWGAYSYTYDYWGQGTQVTVSS | high polyreactivity

Sequence | polyreactivity (PSR sort gate)
QVQLVESGGGLDQAGGSLRLSCAAAGITFTYYAMGWYRPAPGKERELVASITIGGGSTYYADSVKVRFTISRDNAKNTVYLQMKSLKPEDTAVYYCNAAFSVRHLYRYDYWGQGTQVTVSS | low polyreactivity
QVQLVESGGGLDQAGGSLRLSCAASARIFAAYAMGWYRQAPGKEREFVAAITTAGSTHYADSVKGRFTISRDNAKYTVYLQMNSLKPEDTPVYYCAADGIARAYVLFDAYDFLYDYWGQGTQVTVSS | low polyreactivity
QVQLVESGGGLDQAGGSLRLSCAASGFIFDYYAMGWYRQPPWKERELVAAITSGDSTNYADSVKGRFTISRDNAKNTVYLQMNSLKPEDTAVYYCATRFGDRTVSYDSWGQGTQVTVSS | low polyreactivity
QVQLVESGGGLDQAGGSLRLSCAASGFIFFQYAMGWYRQAPGKERELVAAISGSGVTTYYADSVKGRFTISRDNAKNTVYLQMNSLKPEDTAVYYCAADTPPYYAYWDVSFEYYYWGQGTQVTVSS | low polyreactivity
QVQLVESGGGLDQAGGSLRLSCAASGFIFYRYAMGWYRQAPGKERELVAAINWSGGGTYYADSVKGRFTISRDNAKNTVYLQMNSLKPEDTAVYYCAAVRSFRGSYWYEYWGQGTKVTVSS | high polyreactivity
QVQLVESGGGLDQAGGSLRLSCAASGFISPWYAMGWYRPAPGKERELDAAIDWSGGSTYYADSVKGRFTISRDNAKNTVYIQMKSLKPEDTAVYYCAARYYTAAVRAGRVRMYSWGQGTQVTVSS | high polyreactivity
QVQLVESGGGLDQAGGSLRLSCAASGFTFPIYAMGWYRQAPGKERELVAAITTRGGRTYYADSVKGRFTISRDNAKNTVYLQMNSLKPEDTAVYYCNAQGYAYRLWFGYWGQGTQVTVSS | high polyreactivity
QVQLVESGGGLDQAGGSLRLSCAASGFTFYPYTMGWYRQAPGKERELVADITYDSTYYADSVKGRFTISRDNAKNTVFLQMNSLKPADTAVYYCNATGYSVSRSAYWYGWYDYWGQGTQVTVSS | low polyreactivity
QVQLVESGGGLDQAGGSLRLSCAASGIIFRSNAMGWYRQAPGKERELVAAITGRGTRTYYADSVKGRFTISRDNAKNTVYLQMNSLKPEDTAVDYCNTGQTRGMGYWGQGTQVTVSS | high polyreactivity
QVQLVESGGGLDQAGGSLRLSCAASGIIFRWYAMGWYRQAPGKERELVAAITASGGSTYYADSVKGRFTISRDNAKNTVYLQMNSLKPEDTAVYYCNKLRLANIQTDGYYYWGQGTQVTVSS | high polyreactivity
QVQLVESGGGLDQAGGSLRLSCAASGIIITIYAMVWYRQAPGKERELVAAISFSVGSTYYADSVKGRFTISRDNAKNTFFLQMNSLKPEDTAVYYCAAESYTYPFEYWGQGTQVTVSS | high polyreactivity
QVQLVESGGGLDQAGGSLRLSCAASGITFDFNDLGWYRQAPGKERELVACINGNSDSTYYADSVKGRFTISRDIAKNTVFLQMNSLKPEDTAVYYCNVPTVRYRYDSWGQGTQVTVSS | low polyreactivity
QVQLVESGGGLDQAGGSLRLSCAASGITFGFYTMGWYRQAPGKERELVAAITSGGSTSYADSVKGRFTISRDNAKNTVYLQMNSLKPEDTAVYYCAADYLYPFPPYQYWKQSYDYWGQGTQVTVSS | low polyreactivity
QVQLVESGGGLDQAGGSLRLSCAASGITFPYYAMGRYIQAPGKERELVADITSGGSTNYADSVKGRFTISRDNAKNTGYLQMNRLKPEDTAVYYCAADWYVIYDYWGQGTQVSVSS | low polyreactivity
QVQLVESGGGLDQAGGSLRLSCAASGLIFVRYAMGWYRQAPGKERELVATISARGASTYYADSVKGRFTISRDNAKNTVYLQMNSLIPEDTAVYYCANRGYYSRFYSYGYWGQGTEVTVSS | high polyreactivity
QVQLVESGGGLDQAGGSLRLSCAASGLILRRYDMGWYRQAPGKERELVAAISGSGGRTYYADSVKGRFTISRDNAKNTVYLQMNSLKPEDTAVYYCAAEYSYYYDQYSYDYWGQGTQVTVSS | high polyreactivity
QVQLVESGGGLDQAGGSLRLSCAASGNTLNYYTMGWYRQAPGKEREFVAAISWRGSRTYYADSVKGRFTISRDNAKNTVYLQMNRLKQEDTAVYYCATARYGYYGWTPYGDYIFDYWGQGTQVTVSS | high polyreactivity
QVQLVESGGGLDQAGGSLRLSCAASGRIFGFYAMGWYRQAPGKERELVAAITINTGSTSYADSVKGRFTISRDNAKNTVYFQMNSLKPEDTAVYYCATDAAAPKYDYWGQGTQVTVSS | low polyreactivity
QVQLVESGGGLDQAGGSLRLSCAASGRIFLPNAMGWYRQAPGKEMEFVASISWSGGSTYYADSVKGRFTISRDYAKNTVYLQMNSLKPEDTAVYYCNARFGKRYYYWGQGTQVTVSS | low polyreactivity
QVQLVESGGGLDQAGGSLRLSCAASGRIFVIIAMGWYRQAPGKERELVAAISWTGDTTYYADSVKGRFTISRDNAKNTVYLQMNSLKPEDTAVYYCAAEGYYIQSRTYSSDRYDYWGQGTQVTVSS | low polyreactivity

From the nanobody polyreactivity screen of Harvey et al. (2022)
